Results reported in the supplement of paper PMC10065799, “High-throughput profiling of sequence recognition by tyrosine kinases and SH2 domains using bacterial peptide display” (eLife, 2023).

Assays:
[1] = biological target: Fyn (UniProt P06241); experiment: phosphorylation enrichment, bacterial display (enrichment ratio); higher = better substrate or ligand; peptides without Tyr show the background
[2] = biological target: MERTK (UniProt Q12866); experiment: as above
[3] = biological target: EPHB1 (UniProt P54762); experiment: as above
[4] = tested on: Fer (mouse); experiment: as above
[5] = biological target: EPHB2 (UniProt P29323); experiment: as above
[6] = biological target: Fes (UniProt P07332); experiment: as above
[7] = tested on: c-Abl (mouse); experiment: as above
[8] = biological target: FGFR1 (UniProt P11362); experiment: as above
[9] = tested on: c-Src; experiment: as above
[10] = biological target: Jak2 (UniProt O60674); experiment: as above
[11] = biological target: Hck (UniProt P08631); experiment: as above
[12] = tested on: AncSZ; experiment: as above
[13] = biological target: FGFR3 (UniProt P22607); experiment: as above
[14] = biological target: Grb2 SH2 (UniProt P62993); experiment: SH2 binding enrichment of the phosphorylated peptide, bacterial display (enrichment ratio); higher = better substrate or ligand; peptides without Tyr show the background
[15] = biological target: c-Src SH2; experiment: as above
[16] = biological target: SHP2-C SH2; experiment: as above
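For SH2 binding enrichment of the phosphorylated peptide, bacterial display in this document: peptide library displayed on the E. coli surface as eCPX fusions, selected cells deep-sequenced, score is each peptide's frequency after selection divided by its frequency in the input.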
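For phosphorylation enrichment, bacterial display in this document: 11-residue human phosphosite peptides and single-mutation variants displayed on the E. coli surface, counted by deep sequencing, each peptide's frequency after selection divided by its frequency in the unselected input library; frequency after pTyr selection over input frequency; kinase dosed for 20-30% of maximal phosphorylation in three min.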

Chain of Fyn (P06241 whole entry, looked up): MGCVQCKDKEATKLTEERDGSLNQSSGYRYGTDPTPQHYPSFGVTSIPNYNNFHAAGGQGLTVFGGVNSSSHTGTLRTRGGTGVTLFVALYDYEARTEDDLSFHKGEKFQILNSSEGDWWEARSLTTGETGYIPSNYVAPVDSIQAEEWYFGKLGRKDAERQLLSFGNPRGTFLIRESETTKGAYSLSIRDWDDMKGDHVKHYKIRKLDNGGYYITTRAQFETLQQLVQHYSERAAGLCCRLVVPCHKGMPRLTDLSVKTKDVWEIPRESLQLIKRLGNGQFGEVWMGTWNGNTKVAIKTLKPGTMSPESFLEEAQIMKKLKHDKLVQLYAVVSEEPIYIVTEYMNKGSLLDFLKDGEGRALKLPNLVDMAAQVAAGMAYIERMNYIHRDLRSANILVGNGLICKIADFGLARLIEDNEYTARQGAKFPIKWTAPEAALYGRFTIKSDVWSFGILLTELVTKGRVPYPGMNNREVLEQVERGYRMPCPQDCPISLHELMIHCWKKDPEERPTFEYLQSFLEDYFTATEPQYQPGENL
Chain of EPHB2 (P29323 whole entry, looked up): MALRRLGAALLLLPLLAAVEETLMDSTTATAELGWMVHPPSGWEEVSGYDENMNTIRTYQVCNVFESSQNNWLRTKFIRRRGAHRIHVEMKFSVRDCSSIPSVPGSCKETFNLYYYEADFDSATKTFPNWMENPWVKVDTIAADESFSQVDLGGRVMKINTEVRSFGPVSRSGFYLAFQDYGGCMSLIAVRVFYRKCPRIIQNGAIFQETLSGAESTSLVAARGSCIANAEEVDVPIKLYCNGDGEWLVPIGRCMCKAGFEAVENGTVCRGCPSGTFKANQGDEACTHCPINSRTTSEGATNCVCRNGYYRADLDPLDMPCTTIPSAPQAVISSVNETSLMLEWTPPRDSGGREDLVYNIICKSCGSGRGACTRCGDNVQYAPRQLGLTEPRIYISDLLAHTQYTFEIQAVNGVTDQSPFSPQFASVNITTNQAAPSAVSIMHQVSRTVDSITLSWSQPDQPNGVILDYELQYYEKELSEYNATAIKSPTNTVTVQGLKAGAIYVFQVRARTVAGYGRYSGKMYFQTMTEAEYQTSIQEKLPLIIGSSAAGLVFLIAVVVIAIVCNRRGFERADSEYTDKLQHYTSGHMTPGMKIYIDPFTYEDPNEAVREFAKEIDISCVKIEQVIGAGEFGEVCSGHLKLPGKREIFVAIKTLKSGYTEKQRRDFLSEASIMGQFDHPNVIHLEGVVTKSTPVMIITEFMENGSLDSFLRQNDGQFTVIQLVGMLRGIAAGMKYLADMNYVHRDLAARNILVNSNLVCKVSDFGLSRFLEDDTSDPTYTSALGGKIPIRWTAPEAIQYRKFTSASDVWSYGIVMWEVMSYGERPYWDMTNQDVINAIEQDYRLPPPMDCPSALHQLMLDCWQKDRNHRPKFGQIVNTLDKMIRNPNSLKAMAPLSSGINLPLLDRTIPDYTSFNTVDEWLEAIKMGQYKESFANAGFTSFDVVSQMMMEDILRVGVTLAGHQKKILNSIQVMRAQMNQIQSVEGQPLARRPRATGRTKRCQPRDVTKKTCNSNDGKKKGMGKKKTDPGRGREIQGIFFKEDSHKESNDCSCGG
Chain of Fes (P07332 whole entry, looked up): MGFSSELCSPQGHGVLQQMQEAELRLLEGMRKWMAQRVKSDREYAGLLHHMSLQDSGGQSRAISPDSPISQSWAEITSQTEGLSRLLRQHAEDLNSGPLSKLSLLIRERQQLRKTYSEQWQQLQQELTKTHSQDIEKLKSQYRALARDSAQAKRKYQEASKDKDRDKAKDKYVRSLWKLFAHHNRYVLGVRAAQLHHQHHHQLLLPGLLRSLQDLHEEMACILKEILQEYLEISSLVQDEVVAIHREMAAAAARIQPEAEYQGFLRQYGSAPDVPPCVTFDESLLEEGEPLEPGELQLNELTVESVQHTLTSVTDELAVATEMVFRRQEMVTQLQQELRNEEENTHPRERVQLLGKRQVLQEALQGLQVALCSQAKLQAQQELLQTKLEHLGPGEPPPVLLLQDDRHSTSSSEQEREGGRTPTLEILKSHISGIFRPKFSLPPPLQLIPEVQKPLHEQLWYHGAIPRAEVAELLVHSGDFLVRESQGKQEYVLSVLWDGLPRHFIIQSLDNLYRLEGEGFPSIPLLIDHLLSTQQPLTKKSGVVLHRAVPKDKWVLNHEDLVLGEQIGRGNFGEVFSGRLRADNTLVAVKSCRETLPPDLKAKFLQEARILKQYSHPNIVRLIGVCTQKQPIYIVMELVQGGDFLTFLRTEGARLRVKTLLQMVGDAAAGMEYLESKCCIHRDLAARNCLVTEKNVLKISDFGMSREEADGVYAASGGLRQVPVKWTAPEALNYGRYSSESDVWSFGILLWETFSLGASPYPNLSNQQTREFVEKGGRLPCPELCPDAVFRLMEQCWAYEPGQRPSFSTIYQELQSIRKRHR
Chain of MERTK (Q12866 whole entry, looked up): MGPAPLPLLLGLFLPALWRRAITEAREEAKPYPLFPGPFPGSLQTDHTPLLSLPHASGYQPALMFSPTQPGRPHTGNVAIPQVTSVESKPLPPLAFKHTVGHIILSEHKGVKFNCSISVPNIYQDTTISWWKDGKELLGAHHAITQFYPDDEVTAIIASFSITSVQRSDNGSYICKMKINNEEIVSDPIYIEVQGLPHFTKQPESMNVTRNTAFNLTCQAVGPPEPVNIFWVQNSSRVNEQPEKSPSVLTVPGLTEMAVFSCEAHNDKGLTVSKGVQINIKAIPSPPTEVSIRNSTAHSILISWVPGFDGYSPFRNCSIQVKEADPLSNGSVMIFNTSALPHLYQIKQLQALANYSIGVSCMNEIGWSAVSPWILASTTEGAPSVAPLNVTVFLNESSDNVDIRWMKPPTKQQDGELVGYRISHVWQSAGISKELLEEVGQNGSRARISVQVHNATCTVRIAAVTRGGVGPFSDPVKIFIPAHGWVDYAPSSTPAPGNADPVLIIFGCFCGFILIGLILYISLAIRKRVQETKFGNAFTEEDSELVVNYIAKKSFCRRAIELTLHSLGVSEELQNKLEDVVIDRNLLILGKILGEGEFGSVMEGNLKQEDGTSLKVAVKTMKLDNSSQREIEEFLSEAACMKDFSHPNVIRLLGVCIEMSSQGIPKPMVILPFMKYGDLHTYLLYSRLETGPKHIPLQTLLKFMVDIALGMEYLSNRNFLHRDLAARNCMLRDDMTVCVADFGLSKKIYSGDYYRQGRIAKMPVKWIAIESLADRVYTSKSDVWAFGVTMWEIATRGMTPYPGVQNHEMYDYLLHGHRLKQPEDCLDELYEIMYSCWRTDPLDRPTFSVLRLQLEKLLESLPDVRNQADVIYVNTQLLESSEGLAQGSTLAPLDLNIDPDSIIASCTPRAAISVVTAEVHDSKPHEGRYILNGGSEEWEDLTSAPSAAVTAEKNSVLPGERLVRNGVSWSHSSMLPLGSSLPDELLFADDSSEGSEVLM
Chain of Hck (P08631 whole entry, looked up): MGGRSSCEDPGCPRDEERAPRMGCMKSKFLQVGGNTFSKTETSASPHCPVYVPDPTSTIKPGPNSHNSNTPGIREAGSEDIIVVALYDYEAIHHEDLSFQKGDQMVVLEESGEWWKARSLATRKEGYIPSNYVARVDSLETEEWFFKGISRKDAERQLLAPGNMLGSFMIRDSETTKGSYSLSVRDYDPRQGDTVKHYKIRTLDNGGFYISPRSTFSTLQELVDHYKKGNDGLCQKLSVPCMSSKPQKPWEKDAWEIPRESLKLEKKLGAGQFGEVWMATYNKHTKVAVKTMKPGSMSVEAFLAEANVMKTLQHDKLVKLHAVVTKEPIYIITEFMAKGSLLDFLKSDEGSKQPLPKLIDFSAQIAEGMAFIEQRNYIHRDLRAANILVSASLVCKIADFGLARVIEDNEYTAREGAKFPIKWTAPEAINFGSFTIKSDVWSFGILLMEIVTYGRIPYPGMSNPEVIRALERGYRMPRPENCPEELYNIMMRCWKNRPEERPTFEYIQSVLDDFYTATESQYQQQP
Chain of FGFR3 (P22607 whole entry, looked up): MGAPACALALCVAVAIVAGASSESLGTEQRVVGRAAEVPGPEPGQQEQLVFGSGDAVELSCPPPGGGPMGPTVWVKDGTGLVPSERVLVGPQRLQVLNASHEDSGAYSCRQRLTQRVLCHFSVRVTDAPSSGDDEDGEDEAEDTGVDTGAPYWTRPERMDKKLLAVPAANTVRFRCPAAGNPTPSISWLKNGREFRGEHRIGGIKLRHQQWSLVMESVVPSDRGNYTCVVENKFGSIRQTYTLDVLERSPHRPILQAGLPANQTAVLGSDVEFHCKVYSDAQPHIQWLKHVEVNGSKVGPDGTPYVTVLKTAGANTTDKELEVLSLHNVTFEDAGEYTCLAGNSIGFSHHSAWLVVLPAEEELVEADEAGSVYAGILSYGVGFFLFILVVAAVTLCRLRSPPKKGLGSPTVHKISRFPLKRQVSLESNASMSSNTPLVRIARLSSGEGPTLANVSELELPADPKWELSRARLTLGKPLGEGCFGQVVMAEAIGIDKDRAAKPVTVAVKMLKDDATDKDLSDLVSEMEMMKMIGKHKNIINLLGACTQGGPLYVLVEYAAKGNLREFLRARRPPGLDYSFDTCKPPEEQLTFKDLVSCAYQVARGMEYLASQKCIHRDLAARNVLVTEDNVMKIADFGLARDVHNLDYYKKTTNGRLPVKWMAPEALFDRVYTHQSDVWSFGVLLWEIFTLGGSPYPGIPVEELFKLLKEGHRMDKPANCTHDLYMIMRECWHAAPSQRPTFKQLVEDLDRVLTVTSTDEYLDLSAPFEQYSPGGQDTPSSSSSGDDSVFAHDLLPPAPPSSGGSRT
Chain of Grb2 SH2 (P62993 whole entry, looked up): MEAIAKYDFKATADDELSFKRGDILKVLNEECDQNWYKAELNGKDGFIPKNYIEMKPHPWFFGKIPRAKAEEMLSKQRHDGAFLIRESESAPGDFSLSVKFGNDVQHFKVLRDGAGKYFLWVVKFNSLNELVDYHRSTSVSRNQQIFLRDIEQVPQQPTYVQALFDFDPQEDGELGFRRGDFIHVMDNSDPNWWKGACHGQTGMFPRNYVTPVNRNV

Sequence | phosphorylation enrichment [1] | phosphorylation enrichment [2] | phosphorylation enrichment [3] | phosphorylation enrichment [4] | phosphorylation enrichment [5] | phosphorylation enrichment [6] | phosphorylation enrichment [7] | phosphorylation enrichment [8] | phosphorylation enrichment [9] | phosphorylation enrichment [10] | phosphorylation enrichment [11] | phosphorylation enrichment [12] | phosphorylation enrichment [13] | SH2 binding enrichment [14] | SH2 binding enrichment [15] | SH2 binding enrichment [16]
TEYIQYMRRKN [MAX_Y73] | 0.468 | 0.545 | 0.404 | 0.523 | 0.528 | 0.615 | 0.546 | 0.7 | 0.491 | 0.718 | 0.7 | 0.734 | 0.609 | 0.462 | 0.473 | 0.737
CTTIHYNFMCS [TP53_Y234_N239S_YF] | 0.502 | 0.5 | 0.634 | 0.495 | 0.507 | 0.902 | 0.548 | 0.572 | 0.571 | 0.823 | 0.603 | 0.846 | 0.799 | 1.79 | 2.25 | 1.96
VNFGAYINDFN [GLB1_Y488_K493N_YF] | 0.451 | 0.409 | 0.633 | 0.571 | 0.6 | 1.07 | 0.788 | 0.474 | 0.397 | 0.899 | 0.46 | 0.954 | 0.708 | 3.12 | 1.48 | 0.674
RHFSSYSQMEN [PKP1_Y120_R116H] | 0.551 | 0.562 | 0.632 | 0.603 | 0.768 | 1 | 0.413 | 0.776 | 0.414 | 0.545 | 0.551 | 1.02 | 0.688 | 0.991 | 2.71 | 0.991
QGFDTYFGFLL [ARSB_Y165_R160Q_YF] | 11.4 | 6.29 | 4.39 | 8.02 | 7.17 | 2.08 | 1.33 | 6.18 | 7.09 | 4.81 | 8.45 | 3.29 | 5.31 | 0.717 | 0.345 | 0.724
NTPNTYLRVNV [ADD2_Y440] | 0.433 | 0.347 | 0.412 | 0.38 | 0.47 | 0.98 | 0.587 | 0.44 | 0.436 | 0.908 | 0.428 | 0.891 | 0.598 | 0.927 | 0.485 | 1.29
NGPDVYVLPLT [AATK_Y93] | 2.32 | 1.69 | 0.626 | 0.414 | 0.511 | 0.792 | 0.645 | 0.685 | 1.04 | 0.8 | 0.671 | 1.33 | 0.613 | 0.804 | 0.552 | 0.743
IENKLYGMSDP [RET_Y1062] | 0.613 | 0.546 | 0.506 | 0.666 | 0.653 | 0.988 | 0.707 | 0.585 | 0.698 | 0.617 | 0.732 | 0.941 | 0.689 | 0.811 | 0.533 | 0.521
EEGNPYFSSAR [MCCC2_Y520_YF] | 0.61 | 0.462 | 0.446 | 0.43 | 0.623 | 0.966 | 0.796 | 0.461 | 1.15 | 0.818 | 0.638 | 1.01 | 0.648 | 0.769 | 0.51 | 0.627
GIPIQYPIISE [NOG_Y222_W217G] | 0.541 | 0.447 | 0.55 | 0.467 | 0.587 | 1.11 | 0.888 | 0.627 | 0.409 | 1.02 | 0.446 | 0.868 | 0.685 | 0.847 | 0.498 | 0.457
PLYRKYWPNHI [GREB1L_Y1560] | 1.07 | 0.708 | 0.813 | 0.84 | 0.645 | 1.34 | 1.05 | 1.15 | 0.882 | 0.95 | 1.11 | 1.48 | 1.07 | 1.09 | 0.822 | 1.24
GSETPYVDRTP [ESS2_Y335] | 0.451 | 0.466 | 0.408 | 0.409 | 0.477 | 0.821 | 0.603 | 0.488 | 0.453 | 0.813 | 0.429 | 0.711 | 0.553 | 0.814 | 0.573 | 0.719
VGTTAYMAPEA [IRAK4_Y354] | 0.407 | 0.354 | 0.385 | 0.452 | 0.379 | 0.893 | 0.537 | 0.418 | 0.414 | 0.689 | 0.434 | 0.707 | 0.517 | 0.918 | 0.568 | 0.692
NHYKRYNLCAE [PTEN_Y68_I67R] | 0.512 | 0.446 | 0.467 | 0.488 | 0.516 | 0.82 | 0.709 | 0.557 | 0.508 | 0.744 | 0.542 | 0.74 | 0.554 | 0.93 | 0.662 | 0.769
TNGFTCGSSHQ [MANEA_Y331_Y331C] | 0.618 | 0.435 | 0.451 | 0.412 | 0.486 | 0.836 | 0.728 | 0.46 | 0.392 | 0.663 | 0.477 | 0.608 | 0.545 | 0.791 | 0.544 | 0.642
PLDVEYFTLQI [TP53_Y327_G325V] | 2.35 | 0.55 | 0.804 | 0.578 | 0.659 | 1.46 | 1.11 | 7.84 | 2.72 | 2.69 | 1.2 | 2.47 | 5.88 | 0.743 | 0.309 | 0.604
LKALHYMAQTS [SACS_Y3367_V3369A] | 0.705 | 0.749 | 0.759 | 0.746 | 0.634 | 0.94 | 0.907 | 0.765 | 0.587 | 0.751 | 0.623 | 0.89 | 0.887 | 0.861 | 0.609 | 0.707
